The source of these data is the supplement of paper PMC7125110.

± gives the standard error. For some assays here: This sample holds only a part of the variants without activity.

B1: glmS ribozyme (parent)
chain: AUAAAAGCGCCAGAACUACAGAAAUGUAGUUGACGAGGAGGAGGUUUAUCGAAUUUUCGGCGGAUGCCUCCAAA

Holding throughout (conditions): with glucosamine-6-phosphate
Data set [1] covers variants of B1. In words: kcat; higher = faster cleavage; RNA array. The gist of the method: (§1)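 Glucosamine-6-phosphate in HEPES/KCl/Mg(OAc)2 buffer, at 40 μM to 10 mM, was flowed over barcoded ribozyme variants transcribed in situ by E. coli RNA polymerase on sequenced MiSeq chips. Tracking was through a hybridised Cy3 probe at 37 °C. kobs, kcat and KM came from exponential decay fits and weighted Michaelis–Menten fits of normalised per-tile medians.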

Data set [2] covers variants of B1. Briefly: KM; higher = weaker cofactor use; RNA array. The method in brief: as §1
In data set [3] the parent is B1. In words: self-cleavage kobs at 40 uM GlcN6P; higher = faster cleavage; RNA array. The method in brief:
as §1

In data set [4] the parent is B1. Briefly: self-cleavage kobs at 160 uM GlcN6P; higher = faster cleavage; RNA array. The gist of the method: as §1
Variants of B1 are the subject of data set [5]. Briefly: self-cleavage kobs at 2500 uM GlcN6P; higher = faster cleavage; RNA array. The method in brief:
as §1

In data set [6] the parent is B1. Briefly: self-cleavage kobs at 10000 uM GlcN6P; higher = faster cleavage; RNA array. The method in brief: as §1
Variants of B1 are the subject of data set [7]. Briefly: self-cleavage kobs at 640 uM GlcN6P; higher = faster cleavage; RNA array. The gist of the method: as §1

On to A42G U57G, for which the kcat (usually the maximal rate divided by the concentration of active sites) in data set [1] amounted to 4.9e-05 ± 1.3e-06 s⁻¹. The KM (commonly the substrate concentration at which the rate is half of its maximum) in data set [2] amounted to 514 ± 77 µM. Also, the “self-cleavage kobs at 40 uM GlcN6P” value in data set [3] was less than 1e-05 s⁻¹. In addition, in data set [4], the “self-cleavage kobs at 160 uM GlcN6P” value is less than 1e-05 s⁻¹. For the same variant, the “self-cleavage kobs at 2500 uM GlcN6P” value in data set [5] stood at 4.17e-05 ± 1.4e-05 s⁻¹. The “self-cleavage kobs at 10000 uM GlcN6P” value in data set [6] was 4.59e-05 ± 1.4e-05 s⁻¹.
Regarding U31G A33C, the kcat in data set [1] turned out to be 3.39e-05 ± 1.6e-06 s⁻¹. For the same variant, the Michaelis-Menten constant (KM) in data set [2] is 4180 ± 650 µM. Moreover, in data set [6], the “self-cleavage kobs at 10000 uM GlcN6P” value stood at 2.4e-05 ± 8.6e-06 s⁻¹.
For the variant G29C G66C, the catalytic constant (kcat) in data set [1] was found to be 2.22e-05 ± 9.6e-06 s⁻¹.
With G13C A52G, the kcat in data set [1] came to 1.51e-05 ± 1.5e-06 s⁻¹. Besides, the Michaelis-Menten constant (KM) in data set [2] came out at 3660 ± 1000 µM.
Take U57C C70A: the kcat in data set [1] was determined as 1.97e-05 ± 8.4e-06 s⁻¹.
For the variant U46A G66U, the kcat in data set [1] is 0.0037 ± 0.001 s⁻¹. For the same variant, the KM in data set [2] was determined as 5940 ± 2100 µM. For the same variant, the “self-cleavage kobs at 40 uM GlcN6P” value in data set [3] was 5.04e-05 ± 2.3e-05 s⁻¹. In data set [4], the “self-cleavage kobs at 160 uM GlcN6P” value is 8.12e-05 ± 1.9e-05 s⁻¹. Besides, the “self-cleavage kobs at 640 uM GlcN6P” value in data set [7] was determined as 0.000412 ± 7.3e-05 s⁻¹. The “self-cleavage kobs at 2500 uM GlcN6P” value in data set [5] stood at 0.00111 ± 0.00027 s⁻¹. Besides, the “self-cleavage kobs at 10000 uM GlcN6P” value in data set [6] came out at 0.00229 ± 0.00041 s⁻¹.
For A12G U55G, the kcat in data set [1] came to 0.00137 ± 0.00037 s⁻¹. In addition, the Michaelis constant (KM) in data set [2] stood at 6630 ± 3200 µM. The “self-cleavage kobs at 640 uM GlcN6P” value in data set [7] is 0.000113 ± 1.7e-05 s⁻¹. Also, in data set [5], the “self-cleavage kobs at 2500 uM GlcN6P” value was 0.000784 ± 0.00017 s⁻¹. Besides, in data set [6], the “self-cleavage kobs at 10000 uM GlcN6P” value worked out at 0.000815 ± 5.8e-05 s⁻¹.
As to G13C U31A, the kcat in data set [1] was found to be 0.000405 ± 2e-05 s⁻¹. Moreover, in data set [2], the KM amounted to 3100 ± 280 µM. In data set [7], the “self-cleavage kobs at 640 uM GlcN6P” value stood at 7.16e-05 ± 1.3e-05 s⁻¹. In data set [5], the “self-cleavage kobs at 2500 uM GlcN6P” value came to 0.00017 ± 3.3e-05 s⁻¹. The “self-cleavage kobs at 10000 uM GlcN6P” value in data set [6] was determined as 0.000314 ± 4.2e-05 s⁻¹.
On to G60U G66U, for which the kcat in data set [1] was less than 1e-05 s⁻¹. In data set [4], the “self-cleavage kobs at 160 uM GlcN6P” value was less than 1e-05 s⁻¹. The “self-cleavage kobs at 640 uM GlcN6P” value in data set [7] was less than 1e-05 s⁻¹. Also, in data set [6], the “self-cleavage kobs at 10000 uM GlcN6P” value was less than 1e-05 s⁻¹.
In the case of U45G U55G, the kcat in data set [1] stood at 0.00804 ± 0.002 s⁻¹. In addition, in data set [2], the Michaelis-Menten constant (KM) came out at 2970 ± 1000 µM. The “self-cleavage kobs at 40 uM GlcN6P” value in data set [3] was 0.000146 ± 1.5e-05 s⁻¹. Also, in data set [4], the “self-cleavage kobs at 160 uM GlcN6P” value is 0.000304 ± 4.5e-05 s⁻¹. Further, the “self-cleavage kobs at 640 uM GlcN6P” value in data set [7] turned out to be 0.00148 ± 0.00024 s⁻¹. In addition, in data set [5], the “self-cleavage kobs at 2500 uM GlcN6P” value is 0.00365 ± 0.00057 s⁻¹. For the same variant, in data set [6], the “self-cleavage kobs at 10000 uM GlcN6P” value was 0.00624 ± 0.00057 s⁻¹.
With A48C C67A, the catalytic constant (kcat) in data set [1] is 0.000168 ± 1e-05 s⁻¹. Also, the KM in data set [2] was determined as 1800 ± 310 µM. Moreover, the “self-cleavage kobs at 640 uM GlcN6P” value in data set [7] worked out at 4.27e-05 ± 9.9e-06 s⁻¹. Besides, the “self-cleavage kobs at 2500 uM GlcN6P” value in data set [5] was 0.000104 ± 1.4e-05 s⁻¹. The “self-cleavage kobs at 10000 uM GlcN6P” value in data set [6] came to 0.00014 ± 1.4e-05 s⁻¹.
For G29C G40C the same measures were 9.96e-05 ± 4.4e-06 s⁻¹, 1020 ± 150 µM, 3.65e-05 ± 1.5e-05 s⁻¹, 7.4e-05 ± 1.6e-05 s⁻¹ and 8.84e-05 ± 1.8e-05 s⁻¹.
In the case of A15U C16G C50G A52G, the kcat in data set [1] is 1.88e-05 ± 5.2e-06 s⁻¹.
On to G62C C68G, for which the turnover number (kcat) in data set [1] is 1.08e-05 ± 2.7e-06 s⁻¹. Moreover, the “self-cleavage kobs at 10000 uM GlcN6P” value in data set [6] is less than 1e-05 s⁻¹.
On to A12G U54G, for which, in data set [1], the turnover number (kcat) turned out to be 0.000855 ± 0.00011 s⁻¹. Besides, in data set [2], the KM was 2260 ± 460 µM. Moreover, in data set [4], the “self-cleavage kobs at 160 uM GlcN6P” value came out at 6.55e-05 ± 1.5e-05 s⁻¹. In addition, in data set [7], the “self-cleavage kobs at 640 uM GlcN6P” value stood at 0.000179 ± 2.1e-05 s⁻¹. In addition, the “self-cleavage kobs at 2500 uM GlcN6P” value in data set [5] worked out at 0.000475 ± 5.8e-05 s⁻¹. For the same variant, the “self-cleavage kobs at 10000 uM GlcN6P” value in data set [6] came out at 0.00064 ± 0.00017 s⁻¹.
Take U47A A48G: in data set [1], the kcat stood at 7.44e-05 ± 1.1e-05 s⁻¹. Moreover, the “self-cleavage kobs at 640 uM GlcN6P” value in data set [7] was determined as 7.58e-05 ± 2e-05 s⁻¹. In data set [5], the “self-cleavage kobs at 2500 uM GlcN6P” value is 8.16e-05 ± 2.9e-05 s⁻¹. The “self-cleavage kobs at 10000 uM GlcN6P” value in data set [6] amounted to 6.69e-05 ± 1.3e-05 s⁻¹.
As to G29A U65A, in data set [1], the kcat was determined as 0.000167 ± 6.7e-05 s⁻¹. Moreover, in data set [7], the “self-cleavage kobs at 640 uM GlcN6P” value was 0.000132 ± 3e-05 s⁻¹. Moreover, in data set [5], the “self-cleavage kobs at 2500 uM GlcN6P” value stood at 0.000122 ± 2.8e-05 s⁻¹.
A12G C70G: the turnover number (kcat) in data set [1] was determined as 0.000171 ± 1.5e-05 s⁻¹. Further, the Michaelis constant (KM) in data set [2] worked out at 856 ± 240 µM. Further, the “self-cleavage kobs at 640 uM GlcN6P” value in data set [7] came to 7.9e-05 ± 1e-05 s⁻¹. The “self-cleavage kobs at 2500 uM GlcN6P” value in data set [5] was found to be 0.000109 ± 1.6e-05 s⁻¹. The “self-cleavage kobs at 10000 uM GlcN6P” value in data set [6] worked out at 0.000166 ± 1.6e-05 s⁻¹.
As to G13C C67G, the kcat in data set [1] amounted to 1.33e-05 ± 8.3e-07 s⁻¹. The KM in data set [2] was found to be 189 ± 76 µM.
